In US20190233824A1, “PD-1 SPECIFIC APTAMERS” (THE METHODIST HOSPITAL SYSTEM, published 2019):

Target: PD-1 (PDCD1, recombinant full length) (Homo sapiens, UniProt Q15116 Q15116:25-288)
Test: BLI; per-concentration fits 9.90, 4.17, 1.34 nM; phosphate pH 7.4, 137 mM NaCl, 2.7 mM KCl, 0.1% BSA, 0.01% Tween-20, 25 C
Conditions: tags: ACROBiosystems, produced in HEK293; label: 5' biotin (BLI) or FAM (flow); predicted hairpin-bulge / possible G-quadruplex
Experimental: Specific PD-1 5′ biotinylated DNA aptamer (Midland Oligos) were prepared in the concentration range of (10 nM and 100 nM). […] Octet Red analysis software (ForteBio) was used to analyze the sensorgram data.

PD-1 (PDCD1, recombinant full length), sequence (Q15116 25-288, one chain of several): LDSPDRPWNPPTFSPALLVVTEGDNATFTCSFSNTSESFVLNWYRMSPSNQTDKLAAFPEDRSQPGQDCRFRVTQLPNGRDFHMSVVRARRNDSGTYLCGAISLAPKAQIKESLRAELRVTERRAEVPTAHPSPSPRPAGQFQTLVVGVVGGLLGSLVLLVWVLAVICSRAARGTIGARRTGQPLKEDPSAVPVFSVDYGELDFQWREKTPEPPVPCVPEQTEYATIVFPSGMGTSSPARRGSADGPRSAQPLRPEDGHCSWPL

B1: fpf2 (10-150-373) (ssDNA)
DNA: CCGTATACATACCTGATAGCGTATGCGAGGAAGTGGGCTTGGTGTGGTGGGCTTCTCTCAGTAGGTGCATAAGCGCATGCATGC
- binding result: binds
